# US20200223915A1 (OSAKA UNIVERSITY, published 2020)
# B1: antibody 2B1 (antibody, IgG2a, V domains shown)
# VH: QVQLQQPGAELVKPGASVKLSCKASGYTFTTFWIHWVKQRPGRGLEWIGRIAPYSGGTTYNEKFKSKATLTVDRPSTTAYMQLISLTSEDSAVYYCARWDFTYGSNLDYWGQGTTLTVSS
# VL: DIVMTQSQKFMSTSVGDRVSIPCKASQNVRTAVAWYQQKPGQSPKALIYLASNRHTGVPDRFTGSGSGTDFTLTISNVQSEDLADYFCLGHWDYPYTFGGGTKLEIKR
# notes: also called antibody B
# B2: antibody 2B12 (antibody, IgG2a, V domains shown)
# VH: QVQLQQSGAELARPGASVKLSCKASGYTFTRFGMSWVKQRTGQGLEWIGEIYPGSGDTYYSENFKGKATLTADKSSGTAYMELRSLTSEDSAVYFCARWGIYYGNPYAMDYWGQGTSVTVSS
# VL: DIVMTQAAPSVPVTPGESVSISCRSSKSLLHSNGNTYLYWFLQRPGQSPQLLIYRMSNLASGVPDRFSGSGSGTAFTLRISRVEAEDVGVYYCLQHLEYPFTFGSGTKLEIKR
# notes: also called antibody A
# Columns and labels:
# [1] = biological target: T1, wild-type human Claudin 5 protein (human, UniProt O00501 1-218); test: FACS on human Claudin 5-expressing HT-1080 cells; 50% saturation of the MFI binding curve
# T1 construct: also called hCLDN5; CLDN 5
# T1 sequence: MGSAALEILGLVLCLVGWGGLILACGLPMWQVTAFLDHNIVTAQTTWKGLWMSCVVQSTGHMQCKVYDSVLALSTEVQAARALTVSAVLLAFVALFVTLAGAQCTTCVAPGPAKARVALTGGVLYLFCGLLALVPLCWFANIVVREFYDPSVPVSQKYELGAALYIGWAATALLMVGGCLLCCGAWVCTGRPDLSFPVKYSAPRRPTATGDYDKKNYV
# Experimental: (§1) The cells were washed three times with 0.2% BSA-TBS, and then mixed with 100 μL of a secondary antibody solution (FITC conjugated goat anti-mouse IgG+IgM in 1% BSA-PBS (1:400)), followed by a reaction at 4° C. for 1 hour. The cells were washed with 0.2% BSA-TBS, and FACS analysis (FACS caliber, BD Bioscience) was performed.
# [2] = biological target: T2, wild-type rat Claudin 5 protein (rat, UniProt Q9JKD6 1-218); test: FACS on Claudin 5-expressing cells (species comparison)
# T2 sequence: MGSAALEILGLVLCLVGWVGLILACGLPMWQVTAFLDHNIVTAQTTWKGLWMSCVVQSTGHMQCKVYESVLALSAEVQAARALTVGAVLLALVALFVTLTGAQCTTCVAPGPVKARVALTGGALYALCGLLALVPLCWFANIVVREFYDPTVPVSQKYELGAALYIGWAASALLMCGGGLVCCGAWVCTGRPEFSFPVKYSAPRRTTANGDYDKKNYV
# Experimental: as §1
# FIG. 5 illustrates histograms with the horizontal axis representing the fluorescence signal, and the vertical axis representing the cell count. FIG. 6 illustrates a comparison of the amino acid. sequences of Claudin 5 protein of different species.
# [3] = biological target: T3, wild-type mouse Claudin 3 protein (mouse, UniProt Q9Z0G9 1-219); test: FACS on Claudin-expressing cells
# T3 construct: Expressed on cells by retrovirus; Wording leaves open whether the entry is the protein or the DNA; also called mCLDN3
# T3 sequence: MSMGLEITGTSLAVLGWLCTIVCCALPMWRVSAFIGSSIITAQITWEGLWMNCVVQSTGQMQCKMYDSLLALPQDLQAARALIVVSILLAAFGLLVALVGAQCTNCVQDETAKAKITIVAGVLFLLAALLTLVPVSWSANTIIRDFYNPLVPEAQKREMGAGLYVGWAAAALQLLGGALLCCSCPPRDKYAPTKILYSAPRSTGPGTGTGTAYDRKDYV
# Experimental: as §1
# [4] = biological target: T4, wild-type human Claudin 7 protein (human, UniProt O95471 1-211); test: FACS on Claudin-expressing cells
# T4 construct: Expressed on cells by retrovirus; Wording leaves open whether the entry is the protein or the DNA; also called hCLDN7
# T4 sequence: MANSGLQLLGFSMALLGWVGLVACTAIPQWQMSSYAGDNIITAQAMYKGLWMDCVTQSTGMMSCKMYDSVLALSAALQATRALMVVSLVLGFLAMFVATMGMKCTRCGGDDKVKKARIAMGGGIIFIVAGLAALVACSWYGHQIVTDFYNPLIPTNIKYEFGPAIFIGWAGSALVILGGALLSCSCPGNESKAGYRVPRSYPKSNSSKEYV
# Experimental: as §1
# [5] = biological target: T5, wild-type mouse Claudin 5 protein (mouse, UniProt O54942 1-218); test: FACS on Claudin-expressing cells
# T5 construct: also called mCLDN5
# T5 sequence: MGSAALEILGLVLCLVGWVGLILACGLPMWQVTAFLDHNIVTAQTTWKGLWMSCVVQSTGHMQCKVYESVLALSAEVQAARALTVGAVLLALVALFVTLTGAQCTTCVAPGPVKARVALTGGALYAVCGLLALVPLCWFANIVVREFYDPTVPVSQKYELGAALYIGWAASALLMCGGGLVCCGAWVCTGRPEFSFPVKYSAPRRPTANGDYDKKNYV
# Experimental: as §1
# [6] = biological target: T6, wild-type mouse Claudin 4 protein (mouse, UniProt O35054 1-210); test: FACS on Claudin-expressing cells
# T6 construct: Expressed on cells by retrovirus; Wording leaves open whether the entry is the protein or the DNA; also called mCLDN4
# T6 sequence: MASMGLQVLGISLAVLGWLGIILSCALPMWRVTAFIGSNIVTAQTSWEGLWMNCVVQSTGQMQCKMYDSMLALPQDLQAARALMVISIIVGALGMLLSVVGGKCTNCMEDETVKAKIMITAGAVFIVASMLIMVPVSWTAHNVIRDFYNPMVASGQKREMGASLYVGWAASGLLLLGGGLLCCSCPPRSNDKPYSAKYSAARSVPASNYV
# Experimental: as §1
# [7] = biological target: T7, wild-type human Claudin 2 protein (human, UniProt P57739 1-230); test: FACS on Claudin-expressing cells
# T7 construct: Expressed on cells by retrovirus; Wording leaves open whether the entry is the protein or the DNA; also called hCLDN2
# T7 sequence: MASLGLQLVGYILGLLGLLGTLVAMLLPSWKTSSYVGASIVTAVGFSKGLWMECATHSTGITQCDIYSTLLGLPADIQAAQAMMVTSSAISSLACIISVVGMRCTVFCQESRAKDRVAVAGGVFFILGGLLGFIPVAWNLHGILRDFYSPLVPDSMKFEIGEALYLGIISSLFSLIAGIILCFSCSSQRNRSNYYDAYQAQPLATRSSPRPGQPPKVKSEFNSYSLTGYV
# Experimental: as §1
# [8] = biological target: T8, wild-type mouse Claudin 2 protein (mouse, UniProt O88552 1-230); test: FACS on Claudin-expressing cells
# T8 construct: Expressed on cells by retrovirus; Wording leaves open whether the entry is the protein or the DNA; also called mCLDN2
# T8 sequence: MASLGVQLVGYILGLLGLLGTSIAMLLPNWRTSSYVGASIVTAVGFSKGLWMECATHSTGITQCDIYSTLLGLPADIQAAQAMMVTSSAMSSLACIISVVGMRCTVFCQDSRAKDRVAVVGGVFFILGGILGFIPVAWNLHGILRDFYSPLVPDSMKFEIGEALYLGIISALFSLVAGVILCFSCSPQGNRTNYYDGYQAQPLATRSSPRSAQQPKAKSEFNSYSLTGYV
# Experimental: as §1
# [9] = biological target: T9, wild-type mouse Claudin 1 protein (mouse, UniProt O88551 1-211); test: FACS on Claudin-expressing cells
# T9 construct: Expressed on cells by retrovirus; Wording leaves open whether the entry is the protein or the DNA; also called mCLDN1
# T9 sequence: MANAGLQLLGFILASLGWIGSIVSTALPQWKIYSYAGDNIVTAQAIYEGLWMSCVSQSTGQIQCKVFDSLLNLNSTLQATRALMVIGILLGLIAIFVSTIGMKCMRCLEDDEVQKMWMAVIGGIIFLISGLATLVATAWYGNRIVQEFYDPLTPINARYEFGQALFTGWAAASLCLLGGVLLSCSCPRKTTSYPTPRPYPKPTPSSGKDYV
# Experimental: as §1
Binder,Kd [1],binding result [2],binding result [3],binding result [4],binding result [5],binding result [6],binding result [7],binding result [8],binding result [9]
B1,6.9 nM,no binding (tested: 10 µg/mL),no binding (tested: 10 µg/mL),no binding (tested: 10 µg/mL),no binding (tested: 10 µg/mL),no binding (tested: 10 µg/mL),no binding (tested: 10 µg/mL),no binding (tested: 10 µg/mL),no binding (tested: 10 µg/mL)
B2,7.3 nM,no binding (tested: 10 µg/mL),no binding (tested: 10 µg/mL),no binding (tested: 10 µg/mL),no binding (tested: 10 µg/mL),no binding (tested: 10 µg/mL),no binding (tested: 10 µg/mL),no binding (tested: 10 µg/mL),no binding (tested: 10 µg/mL)
